In general, Km refers to the concentration of substrate that gives half-maximal velocity.

The test system of one data set is 2-ketobutyrate. Briefly: Conversion of fed 2-ketobutyrate to L-homoalanine by E. coli BW25113 overexpressing amination enzymes. In kind it is cell-based, Escherichia coli. The arrangement: L-homoalanine produced: unit not given here. Particulars: for L-homoalanine produced: 10 g/L 2-ketobutyrate fed, M9 medium, 37° C., 24 h. As for the experimental part: FIG. 2 is a graph comparing different amination enzymes on the production of L-homoalanine. E. coli cultures were inoculated in M9 medium with addition of 10 g/L 2-ketobutyrate and incubated at 37° C. for 24 h. The horizontal axis labels are defined as follows: (A) Wild-type E. coli BW25113; overexpression of (B) transaminase IlvE (C) valine dehydrogenase from Streptomyces avermitilis; (D) valine dehydrogenase from Streptomyces coelicolor, (E) valine dehydrogenase from Streptomyces fradiae; (F) evolved glutamate dehydrogenase GDH1; and (G) evolved glutamate dehydrogenase GDH2. The error bars represent standard deviations from three independent experiments.
In order to check if any endogenous transaminase of E. coli can work on 2-ketobutyrate, we fed 10 g/L 2-ketobutyrate to wildtype E. coli strain BW25113 growing in M9 medium. […] Since the branched-chain amino acid aminotransferase IlvE (see, e.g. Inoue K, et al. (1988) J Biochem 104(5):777-784) is likely to be a functional candidate, we cloned and overexpressed IlvE in BW25113, which increased the production of L-homoalanine to […] (FIG. 2B). […] However, high concentration of glutamate is needed to drive the reaction equilibrium because transamination is a reversible reaction process. Even under such extreme conditions, the conversion rate of transaminating 2-ketobutyrate to L-homoalanine is only 32%.
To test the conversion of 2-ketobutyrate to L-homoalanine, plasmids pZElac_IlvE, pZElac_VDHsa, pZElac_VDHsc, pZElac_VDHsf, pZElac_GDH and pZElac_GDH2 were transformed into BW25113. The transformants were inoculated in M9 medium with 5 g/L yeast extract, 10 g/L ammonium hydrochloride and 20 g/L glucose. Once OD reached ˜1.0, 10 g/L 2-ketobutyrate plus 0.1 mM IPTG were added and incubated at 37° C. for 24 h. Amino acids were quantified as o-phthaldialdehyde (OPA) derivatives by HPLC analysis.

Another data set deals with threonine. The experiment in a line: Production of L-homoalanine from glucose by E. coli overexpressing GDH2 and threonine dehydratases. In kind it is cell-based, Escherichia coli. Particulars: ATCC98082, overexpressed in combination with GDH2. The text has this: FIG. 5A is a graph with horizontal axis labels defined as follows: (1) BW25113; (2) BW25113 with overexpression of GDH2; (3) ATCC98082 with overexpression of TdcB & GDH2; (4) ATCC98082 with overexpression of IlvAEc & GDH2; (5) ATCC98082 with overexpression of IlvABS & GDH2; and (6) ATCC98082 (ArhtA) with overexpression of IlvABS and GDH2. FIG. 5B is a graph showing the yield of L-homolalanine biosynthesis from glucose. The error bars represent standard deviations from three independent experiments.
To test the production of L-homoalanine from glucose, E. coli strain ATCC98082 harboring plasmid pZS_thrO (see, e.g. Zhang et al. (2008) Proc Natl Acad Sci USA 105(52):20653-20658) was transformed with pZElac_tdcB_GDH, pZElac_ilvAEC_GDH and pZElac_ilvABS_GDH. These transformants were subjected to fermentation using the following production medium: 30 g glucose, 17 g (NH4)2SO4, 2 g KH2PO4, 1 g MgSO4.7H2O, 2 g yeast extract, 0.1 g L-valine, 0.01 g FeSO4:7H2O and 0.01 g MnSO4:7H2O per liter. Antibiotics were added appropriately (ampicillin 50 mg/L, spectinomycin 25 mg/L). Overnight 2XYT culture were diluted 25× into fermentation medium and 0.1 mM isopropyl-b-D-thiogalactoside (IPTG) was added to induce protein expression. In shake flask experiments, the culture medium was buffered by addition of 30 g/L CaCO3. Cultures were incubated in 33° C. shaker (250 rpm) for 40-50 h until glucose was consumed.

Data set [1] in a line: Enzymatic assay of purified glutamate dehydrogenases, amination of 2-ketobutyrate (NADPH consumption at 340 nm). Conditions: 100 mM Tris pH 8.0, 0.2M NH4Cl, 0.2 mM NADPH. In kind it is biochemical. As for the experimental part:
To characterize the enzymes, both the wild-type glutamate dehydrogenase GDHwt and mutant GDH2 were added an N-terminal 6×His-tag, overexpressed, and purified through Ni-NTA columns. The kinetic parameters for […] of 2-ketoglutarate (cognate substrate) and 2-ketoisovalerate or 2-ketobutyrate (nonnatural substrates) were determined by monitoring the consumption of NADPH at 340 nm (FIG. 6). […] The increase in binding affinity is very helpful since high concentration of 2-ketobutyrate interferes with cellular metabolic activities (see, e.g. Daniel et al. (1983) Mol Gen Genet 190(3):452-458). On the basis of the crystallographic model for the active site of GDH, amino group of K92 hydrogenbonds to the γ-carboxyl group of 2-ketoglutarate and determines the substrate specificity (see, e.g. Stillman et al. (1993) J Mol Biol 234(4):1131-1139). Mutation of lysine to valine increases the hydrophobic character of the binding pocket, which explains why the specificity constant kcat/Km of GDH2 towards 2-ketobutyrate is 50-fold higher than that towards the natural substrate 2-ketoglutarate.
Both gene fragments encoding wildtype glutamate dehydrogenase and GDH2 were amplified using primers GDHbamfwd and GDHbamrev. After digestion with BamHI, the gene fragments were inserted into expression plasmid pQE9 (Qiagen). The resulting expression plasmids were transformed into E. coli strain BL21(DE3) harboring pREP4 (Qiagen). Cells were inoculated from an overnight preculture at 1/100 dilution and grown in 200 mL 2XYT rich medium containing 50 mg/L ampicillin and 25 mg/L kanamycin. At an OD600 of 0.6, recombinant proteins were expressed by induction of the cell cultures with 0.1 mM IPTG, followed by incubation at 30° C. overnight. Overexpressed proteins were then purified with Ni-nitrilotriacetic acid columns. Protein concentration was determined by measuring UV absorbance at 280 nm.
Enzymatic assay was performed in assay buffer (100 mM Tris buffer, pH 8.0) containing 0.2M NH4Cl, 0.2 mM NADPH, and various concentrations of 2-ketoacids. The reactions were started by adding the purified enzymes, and the consumption of NADPH was monitored at 340 nm (extinction coefficient, 6.22 mM^−1 cm^−1). Kinetic parameters (kcat and Km) were determined by fitting initial velocity data to the Michaelis-Menten equation using Origin.

B1: GDH1 (protein, UniProt P07262 2-454, looked up)
NADP-specific glutamate …: SEPEFQQAYEEVVSSLEDSTLFEQHPEYRKVLPIVSVPERIIQFRVTWENDKGEQEVAQGYRVQYNSAKGPYKGGLRFHPSVNLSILKFLGFEQIFKNSLTGLDMGGGKGGLCVDLKGRSNNEIRRICYAFMRELSRHIGQDTDVPAGDIGVGGREIGYLFGAYRSYKNSWEGVLTGKGLNWGGSLIRPEATGYGLVYYTQAMIDYATNGKESFEGKRVTISGSGNVAQYAALKVIELGGTVVSLSDSKGCIISETGITSEQVADISSAKVNFKSLEQIVNEYSTFSENKVQYIAGARPWTHVQKVDIALPCATQNEVSGEEAKALVAQGVKFIAEGSNMGSTPEAIAVFETARSTATGPSEAVWYGPPKAANLGGVAVSGLEMAQNSQRITWTSERVDQELKRIMINCFNECIDYAKKYTKDGKVLPSLVKGANIASFIKVSDAMFDQGDVF
In turn, B1 showed a L-homoalanine produced in the data set on 2-ketobutyrate (BW25113 transformant) of 1.6.

B2: IlvABS: biosynthetic threonine dehydratase IlvA from Bacillus subtilis (protein, listed as Bacillus subtilis)
chain: MKPLLKENSLIQVKDILKAHQNVKDVVIHTPLQRNDRLSERYECNIYLKREDLQVVRSFKLRGAYHKMKQLSSEQTENGVVCASAGNHAQGVAFSCKHLGIHGKIFMPSTTPRQKVSQVELFGKGFIDIILTGDTFDDAYKSAAECCEAESRTFIHPFDDPDVMAGQGTLAVEILNDIDTEPHFLFASVGGGGLLSGVGTYLKNVSPDTKVIAVEPAGAASYFESNKAGHVVTLDKIDKFVDGAAVKKIGEETFRTLETVVDDILLVPEGKVCTSILELYNECAVVAEPAGALSVAALDLYKDQIKGKNVVCVVSGGNNDIGRMQEMKERSLIFEGLQHYFIVNFPQRAGALREFLDEVLGPNDDITRFEYTKKNNKSNGPALVGIELQNKADYGPLIERMNKKPFHYVEVNKDEDLFHLLI
Turning to B2, in the data set on threonine, the “L-homoalanine produced from glucose” value amounted to 3.8 g/L and the “threonine remaining in fermentation medium” value came out at 2.5 g/L.

B3: IlvE: branched-chain amino acid aminotransferase of E. coli (protein, UniProt P0AB80 2-309, looked up)
Branched-chain-amino-acid …: TTKKADYIWFNGEMVRWEDAKVHVMSHALHYGTSVFEGIRCYDSHKGPVVFRHREHMQRLHDSAKIYRFPVSQSIDELMEACRDVIRKNNLTSAYIRPLIFVGDVGMGVNPPAGYSTDVIIAAFPWGAYLGAEALEQGIDAMVSSWNRAAPNTIPTAAKAGGNYLSSLLVGSEARRHGYQEGIALDVNGYISEGAGENLFEVKDGVLFTPPFTSSALPGITRDAIIKLAKELGIEVREQVLSRESLYLADEVFMSGTAAEITPVRSVDGIQVGEGRCGPVTKRIQQAFFGLFTGETEDKWGWLDQVNQ
In the data set on 2-ketobutyrate (BW25113 transformant), B3 gave a L-homoalanine produced of 1.2. For the same molecule, the L-homoalanine titer in the data set on 2-ketobutyrate (BW25113 transformant, 10 g/L 2-ketobutyrate plus additional 10 g/L glutamate) was determined as 3.2 g/L. For the same molecule, in the data set with 2-ketobutyrate (with 10 g/L glutamate as amino donor), the “conversion rate of 2-ketobutyrate to L-homoalanine” value came out at 32%.

B4: TdcB: catabolic threonine dehydratase of E. coli (protein, listed as Escherichia coli)
chain: MHITYDLPVAIDDIIEAKQRLAGRIYKTGMPRSNYFSERCKGEIFLKFENMQRTGSFKIRGAFNKLSSLTDAEKRKGVVACSAGNHAQGVSLSCAMLGIDGKVVMPKGAPKSKVAATCDYSAEVVLHGDNFNDTIAKVSEIVEMEGRIFIPPYDDPKVIAGQGTIGLEIMEDLYDVDNVIVPIGGGGLIAGIAVAIKSINPTIRVIGVQSENVHGMAASFHSGEITTHRTTGTLADGCDVSRPGNLTYEIVRELVDDIVLVSEDEIRNSMIALIQRNKVVTEGAGALACAALLSGKLDQYIQNRKTVSIISGGNIDLSRVSQITGFVDA
As to B4, in the data set on threonine, the “L-homoalanine produced from glucose” value was found to be 0.18 g/L, the glutamate accumulated amounted to 4 g/L and the “threonine remaining in fermentation medium” value was 3.7 g/L.

B5: GDHwt: wild-type glutamate dehydrogenase of E. coli, N-terminal 6×His-tag (protein, listed as Escherichia coli)
chain: MDQTYSLESFLNHVQKRDPNQTEFAQAVREVMTTLWPFLEQNPKYRQMSLLERLVEPERVIQFRVVWVDDRNQIQVNRAWRVQFSSAIGPYKGGMRFHPSVNLSILKFLGFEQTFKNALTTLPMGGGKGGSDFDPKGKSEGEVMRFCQALMTELYRHLGADTDVPAGDIGVGGREVGFMAGMMKKLSNNTACVFTGKGLSFGGSLIRPEATGYGLVYFTEAMLKRHGMGFEGMRVSVSGSGNVAQYAIEKAMEFGARVITASDSSGTVVDESGFTKEKLARLIEIKASRDGRVADYAKEFGLVYLEGQQPWSLPVDIALPCATQNELDVDAAHQLIANGVKAVAEGANMPTTIEATELFQQAGVLFAPGKAANAGGVATSGLEMAQNAARLGWKAEKVDARLHHIMLDIHHACVEHGGEGEQTNYVQGANIAGFVKVADAMLAQGVI
modifications: N-terminal 6xHis tag
notes: wild-type glutamate dehydrogenase of E. coli, N-terminal 6×His-tag
For the molecule B5, in data set [1], the “kcat towards 2-ketobutyrate” value worked out at 47.2 s⁻¹. Moreover, in data set [1] (read-out: Km towards 2-ketobutyrate), the Km stood at 35.4 mM.

(Values after patent publication US9550980B2, “Composition and methods for the production of L-homoalanine” (The Regents of the University of California, priority 2010, dated 2017).)
